Measured values: the supplement of paper PMC10724198
± gives the standard deviation of the averaged measurements.

Columns and labels:
Saccharomyces cerevisiae [1] = assay: protein stability index of tFT-peptide fusion (C-terminal peptide) (PSI (0-1 scale)); higher = more stable (slower turnover); settings: genetic background: wild type; temperature: 30 C
Saccharomyces cerevisiae [2] = assay: as above
Experimental: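 MPS profiling in S. cerevisiae of the tFT-X12 degron library: putative degron peptides plus stable controls, 12 aa, fused to the C-terminus of a sfGFP-mCherry timer. Cells are FACS-sorted into 8 mCherry/sfGFP bins and deep-sequenced. PSI runs from 0 (unstable) to 1 (stable). Backgrounds are wild type, das1Δ and doa10Δ at 30 °C, and wild type, das1Δ, cdc34-1 and cdc53-1 at 37 °C; 2-3 technical replicates each.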

[3] = genetic background: cdc34-1, temperature: 37 C
[4] = genetic background: cdc53-1, temperature: 37 C
[5] = genetic background: das1 deletion, temperature: 30 C
[6] = genetic background: das1 deletion, temperature: 37 C
[7] = genetic background: doa10 deletion, temperature: 30 C
[8] = genetic background: wild type, temperature: 30 C
[9] = genetic background: wild type, temperature: 37 C
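Note: PSI is a weighted mean of sequencing reads over stability bins, variants kept only with over 10 reads, mCherry proximal and sfGFP distal, peptide attached via GGGS linker.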

Sequence	protein stability index (Saccharomyces cerevisiae [1])	protein stability index (Saccharomyces cerevisiae [2]; [3])	protein stability index (Saccharomyces cerevisiae [2]; [4])	protein stability index (Saccharomyces cerevisiae [2]; [5])	protein stability index (Saccharomyces cerevisiae [2]; [6])	protein stability index (Saccharomyces cerevisiae [2]; [7])	protein stability index (Saccharomyces cerevisiae [2]; [8])	protein stability index (Saccharomyces cerevisiae [2]; [9])
SSLGILHWRLHS	0.224 ± 0.0078	0.587 ± 0.038	0.709 ± 0.019	0.646 ± 0.011	0.7347 ± 0.0067	0.122 ± 0.022	0.14 ± 0.017	0.259 ± 0.027
SLRCILISTRVK	0.437 ± 0.087	0.541 ± 0.02	0.601 ± 0.054	0.331 ± 0.046	0.563 ± 0.0091	0.317 ± 0.043	0.348 ± 0.021	0.531 ± 0.018
LVVRLFVWDVVW	0.347 ± 0.045	0.34 ± 0.016	0.374 ± 0.028	0.269 ± 0.043	0.473 ± 0.0097	0.224 ± 0.006	0.266 ± 0.028	0.436 ± 0.0076
MRVCLCLMLIVN	0.238 ± 0.033	0.179 ± 0.024	0.282 ± 0.031	0.214 ± 0.018	0.372 ± 0.0069	0.143 ± 0.022	0.148 ± 0.028	0.238 ± 0.0029
DTAFLLVVVVGR	0.373 ± 0.042	0.309 ± 0.0076	0.358 ± 0.036	0.257 ± 0.028	0.446 ± 0.017	0.213 ± 0.0084	0.232 ± 0.032	0.411 ± 0.029
EHIRWLLPKHCL	0.454 ± 0.041	0.681 ± 0.027	0.73 ± 0.026	0.647 ± 0.03	0.725 ± 0.03	0.2907 ± 0.0018	0.314 ± 0.017	0.613 ± 0.063
RWFPPPQYLRLV	0.288 ± 0.011	0.567 ± 0.021	0.648 ± 0.014	0.598 ± 0.02	0.68556 ± 0.00021	0.19 ± 0.032	0.163 ± 0.019	0.397 ± 0.024
LLPLLLFFSLLR	0.466 ± 0.03	0.223 ± 0.019	0.158 ± 0.02	0.34 ± 0.034	0.4062 ± 0.0013	0.601 ± 0.05	0.318 ± 0.034	0.373 ± 0.04
GVVVWWCYFVFV	0.257 ± 0.03	0.181 ± 0.012	0.298 ± 0.034	0.183 ± 0.031	0.3631 ± 0.00064	0.161 ± 0.0072	0.161 ± 0.021	0.321 ± 0.0065
AGVRLIFLFWGF	0.4945 ± 0.0016	0.521 ± 0.05	0.608 ± 0.027	0.43 ± 0.037	0.6496 ± 0.0056	0.444 ± 0.028	0.407 ± 0.054	0.621 ± 0.036
VLCHLVLYVGDK	0.4359 ± 0.0017	0.454 ± 0.013	0.569 ± 0.022	0.383 ± 0.035	0.588 ± 0.013	0.3413 ± 0.0027	0.397 ± 0.052	0.534 ± 0.029
FCRPCCLIVFVV	0.184 ± 0.037	0.236 ± 0.026	0.295 ± 0.029	0.253 ± 0.036	0.467 ± 0.0059	0.122 ± 0.0099	0.128 ± 0.019	0.126 ± 0.019
HPPRSLTLASSS	0.127 ± 0.029	0.696 ± 0.039	0.75 ± 0.014	0.661 ± 0.012	0.754 ± 0.025	0.65 ± 0.019	0.6427 ± 0.0058	0.7137 ± 0.00092
KGSFDLPTFSLF	0.504 ± 0.095	0.726 ± 0.026	0.776 ± 0.018	0.644 ± 0.026	0.769 ± 0.011	0.613 ± 0.015	0.64 ± 0.031	0.7445 ± 0.0073
RPALVSIFLSAY	0.444 ± 0.027	0.555 ± 0.018	0.567 ± 0.023	0.4 ± 0.023	0.553 ± 0.0066	0.38 ± 0.017	0.38 ± 0.021	0.532 ± 0.0076
FGFGSSRFLLCL	0.471 ± 0.029	0.677 ± 0.015	0.731 ± 0.0042	0.609 ± 0.027	0.743 ± 0.0099	0.3357 ± 0.0026	0.384 ± 0.028	0.604 ± 0.026
VCRFLVSVFSCV	0.439 ± 0.019	0.546 ± 0.042	0.548 ± 0.02	0.453 ± 0.02	0.5763 ± 0.00065	0.38 ± 0.024	0.399 ± 0.025	0.5167 ± 0.0027
GTVRGDLSLWLC	0.349 ± 0.11	0.622 ± 0.047	0.745 ± 0.0076	0.681 ± 0.0076	0.765 ± 0.015	0.156 ± 0.012	0.17 ± 0.031	0.274 ± 0.023
SDVHLKSEALAA	0.542 ± 0.11	0.682 ± 0.024	0.69 ± 0.0095	0.569 ± 0.025	0.656 ± 0.013	0.5543 ± 0.0018	0.568 ± 0.02	0.663 ± 0.024
